{"source": "the nanobody polyreactivity screen of Harvey et al. (2022)", "data": [{"experiment": "yeast display, Sf9 membrane polyspecificity reagent, FACS + sequencing; frameworks hold sequencing errors", "outline": "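A nanobody's polyreactivity label depends on the gate it was sorted from. Yeast display cells were stained with 10% biotinylated, detergent-solubilized Sf9 membrane reagent for 1 hour at 4 °C, enriched on streptavidin microbeads and sorted by FACS. The low and high (top ~1%) gates were set on anti-HA fluorescence for expression and streptavidin fluorescence for reagent binding.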", "values": [{"sequence": "QVQLVESGGGLVQAGGSLRLSCAASGITFKYTAMGWYRQAPGKERELVAAISRRGGRTYYADSVKGRFTISRDNAKNTVYLQMNSLKPEDTAVYYCNVETWSVGGREYDYWGQGTQVTVSS", "polyreactivity (PSR sort gate)": "high polyreactivity"}, {"sequence": "QVQLVESGGGLVQAGGSLRLSCAASGHIFLHNAMGWYRQAPGKERELVAGITYSDTSTYADSVKGRFTISRDNAKNTVYLQMNSLKPEDTAVYYCEYYYWGQGTQVTVSS", "polyreactivity (PSR sort gate)": "low polyreactivity"}, {"sequence": "QVQLVESVGGLVQAGGSLRLSCAASGSIFEYYAMGWYRQAPGKERELVAAITRSGGSTYYADSVKGRFTISRDNAKNTVYLQMNSLKPEDTAVYYCAVRGYSSYTYDEYYVGYDYWGQGTQVTVSS", "polyreactivity (PSR sort gate)": "low polyreactivity"}, {"sequence": "QVQLVESGGGLVQAGGSLRLSCAASGRTFYSYAMGWYRQAPGKERELVAAISAGGSTYYADSVKGRFTISRDNAKNTVYLQMNSLKPEDTAVYYCAATYSYYYARYHYWGQGTQVTVSS", "polyreactivity (PSR sort gate)": "high polyreactivity"}, {"sequence": "QVQLVESGGGLVQAGGSLRLSCAPSGRIFYSYAMGWYRQAPGKVRELVAAIRSRGGSTRYADSVKGRFTISRDNAKNNVYLQMNSLKPEDTAVYYCAATGYQSRGSSDYWGQGTQVSVSS", "polyreactivity (PSR sort gate)": "high polyreactivity"}, {"sequence": "QGQLVESGGGLVQAGGSLRLSCAASGSILLYYAMGWYRQAPGKEWELVAAITGGGGTNYADAGKGRFTISRDNAKNTVYLQMNSLIPEDTAVYYCAADPSGQFPYSYYNYDYDYWGQGTQVTVSS", "polyreactivity (PSR sort gate)": "low polyreactivity"}, {"sequence": "QVQLVESGGGLVQAGGSLRLSCAASGRTFYANAMGWYRQAPGKERELVATISSGGRTNYADSVKGRFTISRDNAKNTVYFQMNSLKPEDTAVYYCAKRGPYNRWYGRYDYWGQGTQVTVSS", "polyreactivity (PSR sort gate)": "low polyreactivity"}, {"sequence": "QVQLEESGGGLVQAGGSLRLSCAASGFNFFRNTMGGYRQAPGKERELVAGIRYSGGSTYYADSVKGRFTISRDNAKNTVYLQMNSLKPEDTAVYYCAARSHRRLMYYWGQGTQVTVSS", "polyreactivity (PSR sort gate)": "high polyreactivity"}, {"sequence": "QVQLVESGGGLVQAGGSLRLSCAASGSISKINAMGWYRQAPGKERELVAAINTGDSTYYADSVKGRFTISRDNAKNTVYLQMNSLKPEDTAVYYCATVVYTWFLAEEDDYCGQGTQVTVSS", "polyreactivity (PSR sort gate)": "low polyreactivity"}, {"sequence": "QVQLEESGGGLVQAGGSLRLSCAASGSTFNDYAMGRYRQAPGKERELVAAISSSGGITYYADSVKGRFTISRDNAKNTVYLQMNSLKPEDTEVYYCAASGRDWSWYDYWGQGTQVTVSS", "polyreactivity (PSR sort gate)": "low polyreactivity"}, {"sequence": "QVQLVESGGGLVQAGGSLRLSCAASGSIFGWYVMGWYIQAPGKERELVAAISSVGSTYYADSVKGRFTISRDNAKNTVYLQMKSLKPEDTAVYYCAKLRYPYLFWDDSEYWGQGTQVTVSS", "polyreactivity (PSR sort gate)": "low polyreactivity"}, {"sequence": "QVQLVESGGGLVQAGGSLRLSCAASGRIIKPYAMGWYRQAPGKERELVAAISQSGGRTYYADSVKGRFTISRDNAKNTVYLQMNSLKPEDTAVYYCATRYVSSFGLHAQVWSYYYWGQGTQVTVSS", "polyreactivity (PSR sort gate)": "high polyreactivity"}, {"sequence": "QVHLVESGGGLVQAGGSLRLSCAASGRTYDYYAMGWYRQAHGKERELVAAIRLISGNTYYADSVKGRFTISRDNAKNTVYLQMNSLKPEDTAVYYCARQGYVLYYYWGQGTQVTVSS", "polyreactivity (PSR sort gate)": "low polyreactivity"}, {"sequence": "QVQLVESCGGLVQAGGSLRLSCAASGLIFWKYAMGWYRQAPGKERELVAAITSGGSTNYADSVKGRFTISRDNAKNTVYLQMNSLKPEDTAVYYCNARSWFEYYWGQGTQVTVSS", "polyreactivity (PSR sort gate)": "high polyreactivity"}, {"sequence": "QVQLVESGGGLFQAGGSLRLSCAASGRTFRSYAMGWYRQAPGKERELVAAISTGGSTYYADSVKGRFTISRDNAKNTVYLQMNSLKPEDTAVYYCAAEFNAYTPAGLWYTYYYWGQGTQVTVSS", "polyreactivity (PSR sort gate)": "high polyreactivity"}, {"sequence": "QVQLVESGGGLVQAGGSLRLSLAASGSIFSYYAMGWYRQAPWKERELVAAISYSGSDTYYADSVKGRFTISRDNAKNTVYLQMNSLNPEDTAVYYCAAEDPSYSYDYWGQGTQVTVSS", "polyreactivity (PSR sort gate)": "low polyreactivity"}]}]}
